Molecular target: T1, human SSTR2 (human, UniProt P30874 1-369)
T1 construct: whole, on cells; also called human somatostatin receptor 2; cell surface human SSTR2
Test: flow cytometry on human SSTR2-transfected CHO cells, PE-labeled secondary antibody
Protocol: Cell surface binding of anti-SSTR2 antibodies and exemplary anti-SSTR2×anti-CD3 bispecific antibodies were assessed using human SSTR2-transfected CHO cells. Cells were incubated with indicated test articles for 45 minutes on ice and centrifuged. Cells were resuspended with staining buffer containing phycoerythrin (PE) labeled secondary antibody (2 μg/mL; goat anti-human IgG) and then incubated for 45 minutes on ice. Cells were centrifuged twice and then resuspsended with staining buffer. Binding was measured by flow cytometry (FIGS. 17A-P).
Cell surface binding of XmAb18087 and control anti-RSV×anti-CD3 bispecific antibody (XENP13245) were assessed using humanSSTR2-transfected CHO cells and cynoSSTR2-transfected CHO cells. Cell surface binding was also assessed using parental CHO cells as control. Binding was measured by flow cytometry using phycoerythrin (PE) labeled secondary antibody as generally described in Example 1C.

T1 sequence (P30874 whole entry): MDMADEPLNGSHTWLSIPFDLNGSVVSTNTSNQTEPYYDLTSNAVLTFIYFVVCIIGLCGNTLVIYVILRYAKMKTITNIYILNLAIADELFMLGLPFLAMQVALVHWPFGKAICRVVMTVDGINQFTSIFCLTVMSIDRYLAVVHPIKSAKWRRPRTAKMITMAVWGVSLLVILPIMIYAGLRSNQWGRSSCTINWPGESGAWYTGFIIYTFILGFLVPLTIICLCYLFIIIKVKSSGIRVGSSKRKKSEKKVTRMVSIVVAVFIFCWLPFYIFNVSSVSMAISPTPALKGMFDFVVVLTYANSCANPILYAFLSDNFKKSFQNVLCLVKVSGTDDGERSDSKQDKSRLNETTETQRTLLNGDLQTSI

B1: XmAb18087 (bispecific antibody)
heavy: EVQLVESGGGLVQPGGSLRLSCAASGFTFSDYGMAWFRQAPGKGLEWVSFISNLGYSIYYADSVKGRFTISRDNAKNSLYLQMNSLRAEDTAVYYCARAPYDYDSFDPMDYWGQGTLVTVSSASTKGPSVFPLAPSSKSTSGGTAALGCLVKDYFPEPVTVSWNSGALTSGVHTFPAVLQSSGLYSLSSVVTVPSSSLGTQTYICNVNHKPSDTKVDKKVEPKSCDKTHTCPPCPAPPVAGPSVFLFPPKPKDTLMISRTPEVTCVVVDVKHEDPEVKFNWYVDGVEVHNAKTKPREEEYNSTYRVVSVLTVLHQDWLNGKEYKCKVSNKALPAPIEKTISKAKGQPREPQVYTLPPSREEMTKNQVSLTCDVSGFYPSDIAVEWESDGQPENNYKTTPPVLDSDGSFFLYSKLTVDKSRWEQGDVFSCSVMHEALHNHYTQKSLSLSPGK
chain: not shown
light: not shown
notes: also called XENP18087; XENP018087
B1: binds.

Reference: patent US20220162313A1 (Xencor, published 2022)
